Consider seven sequences from a protein production outcome set (Wang et al. 2014).

A short description of the data set: label from the status in PepcDB records.
“MKSFFSIFGDPSVTSVAIGKFDGMHLAHQRLFSYLDEGGAILTVDAQRGNLTPGEYKREFTPFPLYSIPLGKIKHLSGERFIYMLKKAFPNLTKVVVGYDFRFGKNRAFGVEELRGYFAGEVVVVPEVFHRGHSVHSEAIRELIAQGEMNLAGELLGRD”: the protein production result is “failed”.

Regarding “MKSFVATVLVALLFIVALVFGARNEQVVTISYFVAQGEYRLPVVLAVVFFTGFMLSWLVASYYIVRLKLALAATRKKLTLQTAKKPQGVDA”, the protein production result is “failed”. For “MKSGVIPSSAVGQKINEWYRYIRTFSVPDAEVLKAEIQQELKHMQHDSNLLLYYSLMEFRHQLMLDYLEPLEKLNIEDQPSLSELSRNIDSNQADLKGLLDYYVNFFRGMYEFDKREFISAITYYKQAEKKLSFVADHIERAEFYFKIAEAYYYMKQTYFSLINIKNAYEIYVEQETYNVRIIQCHFVFGVNLMDERNFEQAARHFKLALNMAQAEQKAQLVGRAYYNLGLCYYNQDLLDPAIDYFEKAVSTFESSRIVNSLPQAYFLITLIYYKQGKHDKASEYHKRGYEYAKETDDADYAVKFEFLQSLYLDQPNEEGIERCFQYLKNKNMYADIEDLALEVAKYYYEQKWFKLSASYFLQVEEARKQIQRSEGLYEIEI”, the protein production result is recorded as “failed”.

For the sequence “MKSIEKDKYQDIRDAVRSLCSEFDDKYHRKIDEAKAYPEEFVNKLTKAGWLAALIPEEFGGSGLGLTEASIIMEEINRSGGNSGACHGQMYNMNTLLRHGSDKQKEFWLPRIATGEWRLQSMGVTEPTAGTDTTRIKTTAVKREDRYVINGQKVWISRVQHSDWMILLVRTTPLANVKRKSEGMSIFMVDIKEAMKNGMTVRPIPNMVNHETNELFFDNLEIPEENLIGEEGMGFHYILDGLNAERTLIAAECIGDGYWFMDRVTRYTCEREVFGRPIGQNQGVQFPIAEAFIAVEAANLMRFKACELFDQHLDCGAQANMAKYLAAKASWEAANACLQFHGGYGFACEYDIERKFRETRLYQVAPISTNLILSYIAEHVLEMPRSF”, the protein production result is recorded as “failed”.

On to “MKSILEQLSSMTVVVADTGDLDSIKKFQPRDATTNPSLILAAAKNPDYVKLIDKAIESSENTLPNGFSEIELIKETVDQVSVFFGKEILKIISGRVSTEVDARLSFDTEATVKKARKLINLYKNFGIEKERILIKIAATWEGIKAAEILEKEGIKCNLTLLFNFCQAVTCANANITLISPFVGRILDWHKAKTGKTSFIGAEDPGVISVTQIYKYFKEKGFKTEVMGASFRNLDEIKELAGCDLLTIAPKFLEELKREKGVLIRKLDASTKINNSIDYKFEEKDFRLSMLEDQMASEKLSEGITGFSKAIEELEELLIERLSEMKNHKLISAN”, for which the protein production result was “not failed”. Consider “MKSKFFAQNRERLVNTLPDESITILFAGQAPHMSADAHYKFVPNRNFYYVTGIDEPNVIFMLKKFGNSVEETLFIEKSDPVMEKWVGKTVSNEEAEKISGIKKVIYLDSFEKTMSNIFFTENVKHLYLDLECREWKGTETKTLAFAKHVREQYPHVTIGNVYPNICELRVFKTDEEIEIIKEAIAVTKDGIYNVLKHAKADMMEYELEAQFDFTLKSSGIKHHAFNTILASGKNATVLHYEDNDAQIQNGDLVLLDLGAQKDYYNADISYTFPANGTFSSRQKQIYNIVLNALKETTEIIKPGLKFAALNEHAKKVLAEGCKAVGLIQEDEELSKYYYHGVSHFLGLDTHDVGTYKDRVLEEGMVITIEPGLYIEEESIGIRIEDDILVTKDGHENLSKDIIREVEEIEEFMRENNVNVKQDEVVTK”, for which the protein production entry is given as “not failed”.

Turning to “MKSKNSLLLTTVFTLLVTITTSNVFAAETATVKADENSTDKKNVSKKSYRVSKKVPAMRNRVYSQLSRAQQLADDGDKIEGFEVLAEVEDRLNSLNSYERAMLFNFYGFMYYANEDITLAVDSFNKVIAETAIPDSLIISTLYSLAQLSMQQQHYKEALDYLTQWREINAKELTGTQEMLFAQVYYQDKDFVNSLKHSEMAISLVEAKNKHPKENWLTLQRATYYELKQPKQVTKVMEKLIRLYDKPQYWLQLSSMYGEIGEEDKQMAVMEAAYQAGYITKASDILTLSQLYLFHGAPFKSAAVLEDSIAQGSIFADEDNLSMLARAYLTAKEYDKATKVLVRVSDIAQSGKHDALLAQTYLNTEQWQAAINSSTLALARYAKHKENKGNQVNDIANMHLILGMANFNLKKFERSLTSFAKAAQFTSTKKTALQWGKYVEREQQHHKVQLAMLN”, the protein production entry was “failed”.
